Test [1] concerns the target recombinant human integrin αvβ6 (human) (UniProt P18564). The test is described as follows: competition of 3G9 with RGD3 for binding to αvβ6 (sheet title); y axis 'Relative Inhibition of avb6 binding to TGFb3 peptide'; signal falls from about 1.03 to about 0.04 at log 4.
Test [2] shares this target.
Test [3] shares this target. The test is described as follows: blocking of adhesion (A590) of Cho cells expressing GARP/LTGFB1 to immobilized αvβ6; antibody concentration varied; unit taken from the axis log[Agonist], (ug/ml).

Sequence of recombinant human integrin αvβ6 (human) (chain, as listed by the source limits assumed, chain 1 of 2): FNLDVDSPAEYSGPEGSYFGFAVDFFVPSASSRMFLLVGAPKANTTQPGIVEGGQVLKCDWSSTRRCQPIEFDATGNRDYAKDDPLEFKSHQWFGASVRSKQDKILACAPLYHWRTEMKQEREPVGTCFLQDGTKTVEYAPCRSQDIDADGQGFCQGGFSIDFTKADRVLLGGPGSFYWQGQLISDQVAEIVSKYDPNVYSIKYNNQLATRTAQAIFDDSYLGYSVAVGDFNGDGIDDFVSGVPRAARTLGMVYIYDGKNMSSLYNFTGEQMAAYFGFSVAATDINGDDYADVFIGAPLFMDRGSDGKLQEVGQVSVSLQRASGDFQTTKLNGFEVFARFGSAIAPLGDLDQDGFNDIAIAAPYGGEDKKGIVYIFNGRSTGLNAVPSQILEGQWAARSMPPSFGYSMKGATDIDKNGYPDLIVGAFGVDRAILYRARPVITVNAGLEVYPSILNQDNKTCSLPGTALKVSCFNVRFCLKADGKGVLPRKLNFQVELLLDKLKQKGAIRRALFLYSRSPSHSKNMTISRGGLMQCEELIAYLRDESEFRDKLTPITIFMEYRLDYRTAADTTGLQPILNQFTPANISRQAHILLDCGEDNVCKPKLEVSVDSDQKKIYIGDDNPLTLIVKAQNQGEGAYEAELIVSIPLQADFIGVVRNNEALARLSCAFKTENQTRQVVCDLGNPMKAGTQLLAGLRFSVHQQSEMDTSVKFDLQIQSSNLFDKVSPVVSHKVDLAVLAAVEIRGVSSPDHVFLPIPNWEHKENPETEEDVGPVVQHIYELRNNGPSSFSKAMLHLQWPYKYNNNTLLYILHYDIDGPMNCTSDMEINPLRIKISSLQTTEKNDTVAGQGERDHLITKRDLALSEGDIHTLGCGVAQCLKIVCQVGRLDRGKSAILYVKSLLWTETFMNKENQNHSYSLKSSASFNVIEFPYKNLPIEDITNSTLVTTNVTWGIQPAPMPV
Sequence of recombinant human integrin αvβ6 (human) (P18564 22-707 limits assumed, chain 2 of 2): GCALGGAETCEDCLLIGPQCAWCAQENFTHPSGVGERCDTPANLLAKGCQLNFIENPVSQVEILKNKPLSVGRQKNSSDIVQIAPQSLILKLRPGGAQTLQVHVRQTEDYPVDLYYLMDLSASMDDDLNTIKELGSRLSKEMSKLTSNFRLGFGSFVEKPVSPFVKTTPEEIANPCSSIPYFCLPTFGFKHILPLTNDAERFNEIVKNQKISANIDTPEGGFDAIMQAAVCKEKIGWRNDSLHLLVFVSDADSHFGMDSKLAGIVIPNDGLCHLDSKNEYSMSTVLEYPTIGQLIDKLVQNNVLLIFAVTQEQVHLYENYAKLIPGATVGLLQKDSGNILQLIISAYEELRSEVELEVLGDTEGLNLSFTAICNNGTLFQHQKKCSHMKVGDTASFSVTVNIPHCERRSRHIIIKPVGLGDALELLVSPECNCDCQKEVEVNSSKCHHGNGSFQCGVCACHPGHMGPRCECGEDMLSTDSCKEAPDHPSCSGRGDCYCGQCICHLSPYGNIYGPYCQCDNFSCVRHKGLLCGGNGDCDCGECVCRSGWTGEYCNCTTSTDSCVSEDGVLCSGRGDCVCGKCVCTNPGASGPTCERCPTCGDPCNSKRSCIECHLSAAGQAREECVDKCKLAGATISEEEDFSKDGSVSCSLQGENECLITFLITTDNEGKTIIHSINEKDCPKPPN

Broadly, the EC50 is the midpoint of the concentration-response curve. Mab 3G9 (anti-β6) (antibody): in test [1], the LogEC50 (Log10 (ng/ml)) was found to be 2.93. In addition, the EC50 of inhibition of TGF-β activation (TMLC luciferase reporter) of GARP/LTGFB1 Cho cells on immobilized αvβ6; unit from the axis in test [2] worked out at 0.922 µg/mL. Moreover, the EC50 in test [3] stood at 0.834 µg/mL.

For the origin of these results see patent US20210230279A1.
